Test: yeast display, Sf9 membrane polyspecificity reagent, FACS + sequencing; frameworks hold sequencing errors
Outline: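 Sorting gates, low and high (top ~1%), were placed on anti-HA fluorescence to track expression and on streptavidin fluorescence to track reagent binding. A clone's polyreactivity label is taken from the gate it came out of. The reagent was 10% biotinylated, detergent-solubilized Sf9 membrane, applied for 1 hour at 4 °C to galactose-induced yeast display cells.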

Row | Sequence | polyreactivity (PSR sort gate)
1 | QVQLVESGGGLVQAGGSLRLSCAASGSTLFAYAMGWYRQAPGKERELVAAITSGASTNYADSVKGRFTISRDNAKNTVYLQMNSLKPEDTAVYYCAKDVSGTNPDYDYWGQGTQVTVSS | low polyreactivity
2 | QVQLVESGGGLVQAGGSLRLSCAASGSTFVSNAMGWYSQAPGKERELVAAISSSDDSTYYADSVKGRFTLSRDKAKNTVYLQMISLKPEDTAVYYCAAESDSDQHDGDYWGQGTQVTVSS | low polyreactivity
3 | QVQLVESGGGLVQAGGRLRLSCAASGRIFGVYAMGWYRQAPGKEREFVASITRGGGRTYYADSVKGRFTISRDNAKNTVYLQMNSLKPEDTAVYYCNAVVNSYPYYYWGQGTQVTVSS | high polyreactivity
4 | QVQLVESGGGLVQSGGSLRLSSAASGYTFWAYPMGWYRQAPGKERELVAGISSRGSRTYYADSVKGRFTISRDNAKNTVYLQMNSLKPEDTAVYFCNALRTAQGYYPPLDYWGQGTQVTVSS | high polyreactivity
5 | QVQLVESGGGLVQAGGSLRVSCAASGRTFIKYAMGWYRQAPGKERELVAAISRNGGSTNYADSVKGRFTISRDNAKNTVYFQMNSLKPEDTAVYYCAAVGTVSRTVGYNYWGQGTQVTVSS | high polyreactivity
6 | QVQLVESGGGLVQAGGILRLSCDASGITFSTYAMGWYRQAPGKERELVAAITRSGGTYYADSVKGSFTISRDNAKNTVYLQMNSLKPEDTAVYYCAASYTVFGVRRYGYWGQGTQVTVSS | high polyreactivity
7 | QVQLVESGGGLVQAGGSLRLSCAASGLTFILNAMGWYRQAPGKEREFVAAISRSGVRTYYADSVKGRFTISRDNAKNTVYLQMNSLKPEDTAVYYCARVAPASGVRWYYYWGQGTQVTVSS | high polyreactivity
8 | QVQLVESGGGLVQAGGSLRLSCAASGSIFSYYAMGWYRQAPGKERELVAAISRGGYTYYADSVKGRFTISRDNAKNTVYLQMNSLKPEDTAVYYCAAAPYYVTLVTRRDYWGQGTQVTVSS | high polyreactivity
9 | QVQLVESGGGLVQAGCSLRLSCAASGSIFYRNPMVWYRQAPGKERELVAAISSDGSTNYADSVKGRFTISRDNAKNTVYLQMNSLKPEDTAVYYCAAPWTQILDYWGQGTQVTVSS | low polyreactivity
10 | QVQLVESGGGLVQAGGSLRLSFAASGRIFGENAMGWYRQAPGKEREFVAVISISDASTYYADSVKGRFTLSRDNAKNTVYLQMNSLKPEDTAVYYWAADLTDFLYVASDYWGQGTQVTVSS | low polyreactivity
11 | HVQLVESGGGLVQAGCSLRLSCAASGSIFLRNTMGWYRQAPGKEREFVAAITKRGGTTYYADSVKGRFTMSRDNAKNTVYLQMNSLKPDDTAVYYCAKSYDNEYGYWGQGTQVTVSS | high polyreactivity
12 | QDQLVQSGGGLVQAGGSLRLSCAASAITFVIYSMGWYRQAPGKERELVAAIDGSDGSTYYADSVKGRFTISRDTAKNTVYLQMNSLKPEDTAVYYCNADTGGYYVTGSYLYNEYDYWGQGTQVTVSS | low polyreactivity
13 | QDQLVESGGGLVQAGGSLRLSCAASGRIFKHNAMGWYRQAPGKERELVATISIAGRTNYADSVKGRFTISRDNAKNTVYLQMNSLKPEDTAVYYCAASTFFIHTYDYWGQGTQVTVSS | low polyreactivity
14 | QVQLVESGGGLVQAGGSLRLSCAASGIIFDYNAMGWYRQAPGKERELVAAISGRSGRTYYADSVKGRFTISRDNAMNTVYLQMNSLKPEDTAVYYCAARWYAGGNYWGQGTQVTVSS | high polyreactivity
15 | QVQLVESGGGLVPAGGSLRLICAGSAFTFRSYAIGWYRQAPGQERELVAAISLGGTSTYYADSVKGRFTISRDNAKNTVYLQMNSLKPEDTAVYSCAARSYGHYGYWGQGTQVTVSS | high polyreactivity
16 | QVQLVESGGGLVQAGGSLRLSCADSGYIFYYNAMGWYRQAPGKERDLVATITSGGSTYYADSLKGRFTISRDNAKNTVYLQMNSLKPEDTAVYYCAAPSQSIRYTYIRSYYWGQGTQVTVSS | low polyreactivity
17 | QVQLVESGGGLVQAGGSLRLSCAASGRIFSRYAKGWYRQAPGKERELVAAINKSGGSTYYADSVKGRFTISRDNAKNTVYLQMNSLKPEDTAVYYCNAVYYWYKGDYWGQGTQVTVSS | high polyreactivity
18 | QVQLVDSGGGLVQAGGSLRLSCAASGNTFIYYAMGWYRQAPGKERELVAAITWSGGSTYYADSVKGRFTISRDNAKNTVYLQMNSLKPEDTAVYYCAKFTHNYYYWGQGTQVTVSS | high polyreactivity
19 | QVQLVESGGGLGQAGGSLRLSCAASGFTFRYYAMGWSRQAPGKERELVAAITGSGGRTYYADSVKGRFTISRDNAKNTVYLQKNSLKPEDSAVYYCARDVDPRGRYYWGQGTQVTVSS | high polyreactivity
20 | QVQLVESGGGLVQAGGSLRLSCAASGNTLDAYAMGWYRQAPGKERELVAAITSGGSTYYADSVKGRFTISRDNAKNTVYLQMNSLKPEDTAVYYCNADGHPSDPGYDYWGQGTQVTVSS | low polyreactivity
21 | QVQLVESGGGLVQAGGSLRLSCAASGRIFPRYAMGWYRQAPGKERELVAGINSGGRTNYADSVKGRFTISRDNAKNTVYLQMNSLKPEDTAVYYCAKRTYPYGTYRSVWGYDYWGQGTQVTVSS | low polyreactivity
22 | QVQLVESGGGLVQAGGILRLSCADSGRTFGSNAMGWYRQAPGKERELVAAISGRTDSTYYADSVKGRFTISRDNAKNTVYLQMNSLKPEDTAVYYCAADSADVLYYYIRYNYWGQGTQVTVSS | low polyreactivity

Row | Sequence | polyreactivity (PSR sort gate)
23 | QVQLVESGGGLVEAGGSLRLSCAASGRIFRYNAMGWYRQAPGKEWELVAAITASGGRTYYADSVKGRFTISRDNAKNTVYLQMNSLKPDDTAVYYCAATAFDKLKVWYSYWRQGTQVTVSS | high polyreactivity
24 | QVQLVESGGGLVQAGGSLRLSCAASGNTLDVNAMGWYRQAPWKERELVAAITSGGSTNYADSVKGRFTISRDNAKNTVYLQMNSLKPEDTAVYYCAKGSGVTYVNETLNTDYGYWGQGTQVTVSS | low polyreactivity
25 | QVQLVESGGGLVQAGGSLRLSCAASGSTFGSNAMGWYRQAPGKERELVAAISSSGSTYYADSVKGRFTISRDNAKNTVYLQMNSLKPEDTAVYYSAAPGSPYGYWGQGTQVTVSW | high polyreactivity
26 | QVQLVESGGGLVQAGGSLRLSCAASGRIFDYYAMGWYRQAPGKERELVAVISGSGGTYYADSVKGRFTISRDNAKNTVYLQMNSLKPEDTAVYYCNAAVTSYPGYEYWGQGTQVTVSS | low polyreactivity
27 | QVQLVESGGGLVQAGGSLRLSCAASYAMGGYRQAPGKERELVAGISRSGDITYYADSVKGRFTISRDNAKNTVYLQMNSLKPEDTAVYYCAARQGRYSGRQLFYWGQGTQVTVSS | high polyreactivity
28 | QVLLVESGGGLVQAGGSLRLSCAASGLTFRYYAMGWYRQAPGKERELVAAITSGGSTYYADSVKGRFTISRDNAKNTVYLQMNSLKPEDTAVYYCNKLLGRTVRHDYWGQGTQVTVSS | high polyreactivity
29 | QVQLVESGGGLVQAGGSLRLSCAASGNTFRYNAMGWYRQAPWKERELVAAISRRGGSTYYADSVKGRFTISRDNAKNTVYLQMNSLKPEDTAVYYCNAGRTAENEYWGQGTQVTVSS | high polyreactivity
30 | QVQLVESGGGLVQAGGSLRLSCAASGFTFDKNAMGWYRQAPGKERELVAAINIGSTYYADSVKGRFTISRDNAKNTVYLQMNSLKPEDTAVYYCAKEVPSGYWVNYYYWGQGTQVTVSS | low polyreactivity
31 | QVQLVESGGGLVQAGGSLRLSCAASGLTFSKYVMGWYRQAPGKERELVAGISRSSGSTYYADSVKGRFTISRDNAKNTVYLQMNSLKPEDTAVYYCAARARRKYDYWGQGTQVTVSS | high polyreactivity
32 | QVQIVESRGGLVQAGGSLRLSCAASGSIIRYYVMGWYRQAPRKERELVASISYSVGRTYYADSVKGRFTISRDNAKNTVYLQMNSLKPEDSAVYYCASDRYWPYYSAYYTSYRMDYWGQGTQVTVSS | high polyreactivity
33 | QVQLVESGGGLVQAGGSLRLSCAASGFTFYYYTMGWYRQAPGKEMELVADISSGDRTYYADSVKGRFTISRDNAKNTVYLQMNSLKPEDTAVYYCAAPAKYYTRFGHYILNQDYDSWGQGTQVTVSS | low polyreactivity
34 | QVQLVESGGGLVKAGGSLRLSCAASGRIFNWYVMGWSRQAPGKERELVAAISWGSGNTYYADSVKGRFTISRDNAKNTVYLQMNSLKPEDTAVYYCNKVRSYRSWRGKYDYWGQGTQVTVSS | high polyreactivity
35 | QVQLVESGGGLVQAGGSLRLSCAASGYTRFYAMGWYRHAPGKERELVAAISSSGGTTYYADSVKGRLTISRDNAKNTVYLQMNSLKPDDSAVYYCAKYVSYCRTLYEYWGQGTQVTVSS | high polyreactivity
36 | QVKLVESGGVLVQAGGSLRLSCAASGRIFGTYAMGWYRQAPGKERELVASISYSDGSTYADSVKGRFTISRDNAKNTVYLQMNSLKPEDTAVYYCAADVYYYAQCEDGYWGQGTQVTVSS | low polyreactivity
37 | QVQLVESGGGLVQAGGSLRLSCAASGRTFWSYAMGWYRQAPGKEREFVAAISYSGSSTYADSVKGRFTISRDNAKNTVYLQMNSLKPEDTAVYYLLRGQGTQVTVSS | low polyreactivity
38 | QVQLVESGGGLVQAGGSLRLRCAACGSIFTQYVMGWYRKAPGKERELVAAITWSGGNTYYADSVKGRFTISRDNAKNTVYLQMNSLKPEDTAVYYCAAYKPYSKYNDWGQGTQVTVSS | high polyreactivity
39 | QVQIEESGGGLVQAGGSLRLSCAASGSTFGYYAMGWYRQAPGKERELVAAISRGGSTYYADSVKGRFTISRDIAKYTVYLQMHSLKPEDTAVYYCNAVRYLEYDWGQGTQVTVSS | high polyreactivity
40 | QVQLVESGGGLVQAGGSLRLSCAASGIIFYGYVMGWYRQAPGKERELVATITSSGGSTYYADSVKGRFTISRDNAKNTVYLQMNSLKPEDTGVYYCAADYYYGAWVRHDYWGQGTQVTLSS | low polyreactivity
41 | QVQLVESGGGLVQAGGSLRLSCAASGSIIGRYAMAWYRPAPGQVRELVAAISTGGGRTYYADSVKGRFTISRDNAKNTVYLQMNSLKAEDTAVYYCNAGPYKGWGRMDYWGQGTQVTVSS | high polyreactivity
42 | QVQLVESGGGLVQAGGSLRLSCAASGSIFNYNAMGWYRQAPGKERELVATINKRAGRTYYADSVKGRFTISRDNAKNTVYLQMNSLKPEDTAVYYCAALHSGRVQNFDYWGQGTQVTVSS | high polyreactivity
43 | QVHLVESGGGLVQAGGSLRLSCAASGRIFQRNVMGWYRQAPGKERELVASITGGGTTNYADSVKGRFTISRDNAKNTVYLQMNSLKPEDTAVYYCAKGYGASNDPGYVRKRYGYWGQGTQVTVSS | low polyreactivity
